Literature values, collected in PMC4581962.

Molecular target: IL-6Rα (Homo sapiens) (UniProt P08887)
UniProt P08887, sequence (P08887 20-355): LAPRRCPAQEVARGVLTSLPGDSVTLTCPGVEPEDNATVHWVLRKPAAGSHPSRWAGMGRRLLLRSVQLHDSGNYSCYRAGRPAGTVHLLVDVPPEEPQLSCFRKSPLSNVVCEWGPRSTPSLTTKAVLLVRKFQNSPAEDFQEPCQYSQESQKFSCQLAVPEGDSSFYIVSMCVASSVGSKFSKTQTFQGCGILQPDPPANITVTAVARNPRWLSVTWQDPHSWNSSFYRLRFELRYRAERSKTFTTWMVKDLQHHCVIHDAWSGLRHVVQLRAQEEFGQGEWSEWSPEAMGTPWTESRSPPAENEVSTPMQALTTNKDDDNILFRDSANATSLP

**Q.** Which Kd does the source give for IL-6 (from UniProt P05231) here?
**A.** 9 nM
